Target: the molecule itself
Assay: SAXS; 2.618 mg/mL hNudt16 in 20 mM HEPES pH 7.9, 300 mM NaCl, 10% glycerol, 0.5 mM TCEP, 20 mM MgCl2; room temperature; scattering compared with crystal structures of the dimer (CRYSOL) and ab initio model (DAMMIN)

B1: human Nudt16 protein (hNudt16), wild type (enzyme, UniProt Q96DE0 1-195, looked up)
chain: MAGARRLELGEALALGSGWRHACHALLYAPDPGMLFGRIPLRYAILMQMRFDGRLGFPGGFVDTQDRSLEDGLNRELREELGEAAAAFRVERTDYRSSHVGSGPRVVAHFYAKRLTLEELLAVEAGATRAKDHGLEVLGLVRVPLYTLRDGVGGLPTFLENSFIGSAREQLLEALQDLGLLQSGSISGLKIPAHH
notes: human Nudt16 (hNudt16), NUDIX hydrolase; also called hNudt16 WT
  stoichiometry N: 2

— paper PMC8535469, “Insight into the Binding and Hydrolytic Preferences of hNudt16 Based on Nucleotide Diphosphate Substrates” (International Journal of Molecular Sciences, 2021)
